2 substances from patent US20060121535 can be followed below.

In series [1] the test system is GST-EEEIYGEFE (SEQ. ID. NO: 1) fusion protein.
In a further series the target is GST-Crkl (SH3) (UniProt P46109).
Sequence of GST-Crkl (SH3) (P46109 120-303): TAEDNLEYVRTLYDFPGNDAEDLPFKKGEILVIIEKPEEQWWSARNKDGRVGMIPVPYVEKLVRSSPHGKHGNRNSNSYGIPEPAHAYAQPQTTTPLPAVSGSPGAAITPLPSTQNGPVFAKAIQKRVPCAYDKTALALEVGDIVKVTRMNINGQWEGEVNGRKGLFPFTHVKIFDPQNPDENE

With “protein-tyrosine kinase p60^c-src (Calbiochem)”, in series [1], the “Km of phosphorylation, substrate in solution (Lineweaver-Burk)” value is on record as “Km=2.7±1.0 µM”; the “Km of phosphorylation, surface-immobilized substrate (Lineweaver-Burk)” value is on record as “Km=0.36±0.033 µM”; the “Vmax of phosphorylation, substrate in solution (Lineweaver-Burk)” value is recorded as “Vmax=8.1±3.1 (arbitrary units)”; the “Vmax of phosphorylation, surface-immobilized substrate (Lineweaver-Burk)” value was “Vmax=9.7±0.63 (arbitrary units)”.

For the substance “Bcr-Abl tyrosine kinase in K562 cell lysate”, in the series with GST-Crkl (SH3), the “Crkl phosphorylation in pure HL60 lysate (Bcr-Abl-) relative to pure K562 lysate (Bcr-Abl+)” value is on record as “the level of Crkl phosphorylation in the pure HL60 cell lysate is only 3.5% of that observed in the pure K562 cell lysate”.
